According to paper PMC7979749, “Structural basis of the dynamic human CEACAM1 monomer-dimer equilibrium” (Communications Biology, 2021):

What was measured:
[1] = target: TIM-3 IgV (Homo sapiens) (UniProt Q8TDQ0); conditions: cited from earlier work
[2] = target: CEACAM1 IgV (Homo sapiens) (UniProt P13688); conditions: cited from earlier work
[3] = target: human CEACAM1 IgV domain, N97A mutant (human) (UniProt P13688); assay: NMR titration; 15N-HSQC spectra at varying protein concentration (N97A 16-500 μM; WT 10 μM and 1 mM); 10 mM HEPES, 50 mM NaCl, pH 7.0, 25 °C; dimer to monomers; rough estimate from peak trajectories of Q44 and A49
[4] = target: the molecule itself; assay: SEC-MALS; samples at 100 μM injected onto TSK-gel Bioassist G4SWxl, 10 mM HEPES pH 7.4, 150 mM, 0.5 mL/min; self-association, monomer to dimer
[5] = target: the molecule itself; assay: crystal structure; mutant proteins concentrated to 10 mg/ml (exceeding 800 μM); molecular replacement with PDB 4QXW; self-association in the asymmetric unit

TIM-3 IgV (Homo sapiens), sequence (Q8TDQ0 22-124): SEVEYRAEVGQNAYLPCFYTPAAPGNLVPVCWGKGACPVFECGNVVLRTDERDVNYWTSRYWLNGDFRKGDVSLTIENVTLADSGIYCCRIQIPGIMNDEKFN

For CEACAM1 IgV (from UniProt P13688), the Kd [1] is listed as 2.5 µM and the Kd [2] is listed as 0.45 µM.

“human CEACAM1 IgV domain, N97A mutant (from UniProt P13688 35-141) (domain or fragment)” showed a Kd [3] greater than 1000 µM.

B1: human CEACAM1 IgV domain, wildtype (domain or fragment)
chain: AQLTTESMPFNVAEGKEVLLLVHNLPQQLFGYSWYKGERVDGNRQIVGYAIGTQQATPGPANSGRETIYPNASLLIQNVTQNDTGFYTLQVIKSDLVNEEATGQFHVY
notes: Carcinoembryonic antigen-related cell adhesion molecule 1 (CEACAM1), human, N-terminal IgV domain; NMR samples were 15N/13C or 15N/13C/2H labelled; also called hCEACAM1 WT IgV; WT; source: isotope-labelled samples expressed from E. coli in M9 minimal medium, purified
With B1 the “stoichiometry N” value [4] was 2.

B2: human CEACAM1 IgV domain, V39A mutant (domain or fragment)
chain: QLTTESMPFNVAEGKEVLLLVHNLPQQLFGYSWYKGERADGNRQIVGYAIGTQQATPGPANSGRETIYPNASLLIQNVTQNDTGFYTLQVIKSDLVNEEATGQFHVY
notes: unglycosylated; also called hCEACAM1 V39A
B2: binds [4].

B3: human CEACAM1 IgV domain, I91A mutant (domain or fragment)
chain: QLTTESMPFNVAEGKEVLLLVHNLPQQLFGYSWYKGERVDGNRQIVGYAIGTQQATPGPANSGRETIYPNASLLIQNVTQNDTGFYTLQVAKSDLVNEEATGQFHVY
notes: unglycosylated
B3: binds [5].
